Data on two substances can be found in publication doi:10.1101/2024.11.08.622755.

Assay [1] addresses Nonlabens marinus rhodopsin 3 (NM-R3), chloride ion-pumping rhodopsin clade (Nonlabens marinus S1-08T). The assay is described as follows: cryo-EM structure.
Assay [2] has as its target Nonlabens marinus rhodopsin 1 (NM-R1), proteorhodopsin clade (Nonlabens marinus S1-08T). The assay is described as follows: cryo-EM structure.

By stoichiometry N is commonly meant the number of molecules, sites or subunits per partner or assembly. Substance “Nonlabens marinus rhodopsin 3 (NM-R3), chloride ion-pumping rhodopsin clade (natural protein)” displayed a stoichiometry N in assay [1] of 5.

In the case of “Nonlabens marinus rhodopsin 1 (NM-R1), proteorhodopsin clade (natural protein)”, the stoichiometry N in assay [2] was found to be 5.
